According to patent US20210214440A1 (Janssen / Centocor, published 2021):

B1: CD8B186 (antibody, human IgG1, kappa, V domains shown)
VH: QVQLQQSGAELAKPGASVKMSCKASGYIFTSYWMHWVKQRPGQGLEWIGNINPSSGYAVYNQKFKDKATLTADQSSSTAYIQLNSLTSEDSAVYYCARRVFYGDSWFAYWGQGTSVTVSS
VL: DVQMIQSPASLSASVGETVTITCRASGNIHNYLAWYQQKQGKSPQLLVYNAKTLADGVPSRFSGSGSGTQYSLKINSLQPEDFGSYYCQHFWSTTWTFGGGTKLEIKR
notes: full-length human IgG1, kappa
B2: CD8B192 (antibody, human IgG1, kappa, V domains shown)
VH: QVQLQQSGPVLVKPGASVKMSCKASGYTFTDYYMNWVMQSHGKSLEWIGVINPYNGGTTYNQRFTGKATLTVDKSSSTAYMELNSLTSEDSAVYYCARNYGAMDSWGQGTSVTVSS
VL: DIQMTQSPASLSASVGETVTITCRASGNIHNYLAWYQQKQGKSPQLLVSNAKTLADGVPSRFGGSGSGTQYSLKINSLQPEDFGSYYCQHFWITPPTFGAGTRLEIKR
notes: full-length human IgG1, kappa
B3: CD8B245 (antibody, human IgG1, kappa, V domains shown)
VH: EFQLQQSGGGLVQPGGSLSLSCAAPGFTFTDYYMSWVRQSPGKALEWLALSRNKGNGYTTEYSASVKGRFTISRDNSQSILYLQMNVLRAEDSATYYCARTVTGTLFYYALDYWGQGTTVTVSS
VL: DIQMTQSPASLSASVGETVTITCRASENIYSYLAWYQQKQGKSPQFLVYNAKTLAAGVPSRFSGSGSGTQFSLKINRLQPEDFGTYYCQHHYGTPLTFGDGTRLEIKR
notes: full-length human IgG1, kappa
B4: CD8B340 (antibody, human IgG1, kappa, V domains shown)
VH: QVQLQQPGAELVKPGASVRLSCKASGYTFTNYWMQWVQQRPGQGLEWIGEIDPSDTFTNYNQNFKDKATLTVDTSSSTAYLQLSSLTSEDSAVYYCARGDWDRDWYFDVWGTGTLVTVSA
VL: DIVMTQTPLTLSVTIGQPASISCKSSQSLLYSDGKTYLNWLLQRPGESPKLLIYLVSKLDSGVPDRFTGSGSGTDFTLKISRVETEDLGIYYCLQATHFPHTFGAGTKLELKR
notes: full-length human IgG1, kappa
B5: CD8B337 (antibody, human IgG1, kappa, V domains shown)
VH: QVTLKESGPGKVQPSQTLSLTCSFSGFSLSTSGMGVSWIRKPSGKGLEWLAHIFWDDDRRYKSSLKSRLTISKDTSSNQVFLMITSVDTADSATYYCARRVGYGDYAYFDVWGAGTTVTVSS
VL: DIQMTQYPASLSVSVGETVTITCRASENIYSDLAWYQQKQGKSPQLLVYAATNLADGVPSRFSGSGSGTQYSLKINSLQSEDFGNYYCQHFWGTPWTFGGGTKLEIKR
notes: full-length human IgG1, kappa
B6: CD8B250 (antibody, human IgG1, kappa, V domains shown)
VH: QVQLKESGPGLVAPSQSLSITCTVSGFSLSNYVVHWVRQSPGKGLEWLGVIWTDGSTDYNAAFISRLSISKDNSKSQVFFKMNSLQADDTAIYYCARNNGYFPAFFAYWGQGTLVTVSA
VL: DIVMTQSQKFMSTSVGDRVSVTCKASQNVDTDITWYQQKPGQSPKALIYSASYRYSGVPDRFTGSGSGTDFTLTITNVQSEDLAEYFCQQYNSYPLTFGSGTKLEMKR
notes: full-length human IgG1, kappa
B7: CD8B366 (antibody, human IgG1, kappa, V domains shown)
VH: EVQLQQSGPELVRPGASVKLSCTASGFNIKDDYIHWVKQRPEQGLEWIGRIDPANGNPRYAPKFQDKATLTADTSSNTAYLQLSSLTSEDTAVYYCARDDEGYYYFDVWGAGTSVTVSS
VL: DIKMTQSPSYLAASPGETITINCRASKSISKYLAWYQEKPGKTNKVLIYSGSTLQSGIPSRFSGSGSGTDFTLTISSLEPEDFAIYYCQQHNEYPLTFGDGTRLEIKR
notes: full-length human IgG1, kappa
B8: CD8B311 (antibody, human IgG1, kappa, V domains shown)
VH: QVQLKESGPELVKPGASVKLSCKASGYTFTSYWMHWVKQRPGQGLEWIGMIHPNSGSTNYNEKFKSKATLTVDKSSSTAYMQLSSLTSEDSAVYYCARCGYDGAWFAYWGQGTSVTVSS
VL: DIQMTQTTSSLSASLGDRVTISCSASQGISNCLNWYQQKPDGTVKLLIHYTSSLHSGVPSRFSGGGSGTHYSLTISNLEPEDIATYYCQQYSKVPYTFGSGTKLEIKR
notes: full-length human IgG1, kappa
B9: CD8B248 (antibody, human IgG1, kappa, V domains shown)
VH: EVQLQQSGAELARPGASVKMSCKASGYTFTTYTMHWVKQRPGQGLEWIGYINPSSGYTKYNQKFTDKATLTADKSSSTAYMQLSSLTSEDSAVYYCARLWAYWGQGTLVTVSA
VL: DVVMTQTPLSLPVSLGDQASISCRSSQSLVHSSGNTYLHWYLQKPGQSPKLLIYKGSNRFSGVSDRFSGSGSGTDFTLKISRVEAEDLGVYFCSQSTHVPFTFGSGTKLEMKR
notes: full-length human IgG1, kappa
B10: CD8B254 (antibody, human IgG1, kappa, V domains shown)
VH: EVQLQQSGAELVKPGASVKMSCKTSGYTFSSYWITWVKQRPGQGLEWVGDIYPGSGSTNYNEKFKSKAALTVDTSSSTAFMQLNSLTSEDSAVYYCARESITTRITPFDHWGQGTTLTVSS
VL: DVVMTQTPLSLPVSLGDQASISCRSSQSLVHSSGNTYLHWYLQKPGQSPKLLIYKGSNRFSGVSDRFSGSGSGTDFTLKISRVEAEDLGVYFCSQSTHVPFTFGSGTKLEIKR
notes: full-length human IgG1, kappa
B11: CD8B362 (antibody, human IgG1, kappa, V domains shown)
VH: EVKLVESGAELVKPGASVKLSCTASGFNIKDTYMHWVKQRPEQGLEWIGRIDPANGHTKFDPKFQGKATITADTSSNTAYLQLSSLTSEDTAVYYCAIRFAYWGQGTLVTVSA
VL: DIQMTQSPSSLSASLGDRVSLTCRASHEISGYLSWLQQKPDGTFKRLIYAASTLDSGVPKRFSGSRSGSDYSLSISSLESEDFADYYCLQYSSYPYTFGSGTKLEMKR
notes: full-length human IgG1, kappa

Target: T1, human CD8 on human pan T cells (human, UniProt P01732 22-235; P10966 22-210)
T1 construct: Native CD8 on the CD4-negative population of human pan T cells
Assay: flow cytometry, 20 nM mAb on human pan T cells
Description: Secondary antibodies were A647-conjugated goat anti human IgG Fc antibody at 2 μg/mL, and A488-conjugated mouse anti-human CD4 at 1 μg/mL in staining buffer. Live cells were also gated based on OKT8 control mAb binding. Percent CD8 positive population was calculated by percentage of CD8-positive cell count/live cell count.

T1 sequence (P01732 22-235, chain 1 of 2): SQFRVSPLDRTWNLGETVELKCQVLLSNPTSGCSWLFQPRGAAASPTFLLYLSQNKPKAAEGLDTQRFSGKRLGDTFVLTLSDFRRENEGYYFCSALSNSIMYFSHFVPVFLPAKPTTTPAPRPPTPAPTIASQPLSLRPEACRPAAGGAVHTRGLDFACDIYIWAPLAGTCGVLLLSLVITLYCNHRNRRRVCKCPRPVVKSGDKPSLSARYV
T1 sequence (P10966 22-210, chain 2 of 2): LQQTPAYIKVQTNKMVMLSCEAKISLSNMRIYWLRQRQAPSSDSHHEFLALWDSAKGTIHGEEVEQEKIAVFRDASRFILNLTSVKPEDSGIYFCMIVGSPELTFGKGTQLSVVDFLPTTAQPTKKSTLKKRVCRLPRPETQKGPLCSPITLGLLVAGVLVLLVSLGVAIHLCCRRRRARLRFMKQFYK

| Binder | Cell Binding to Human PanT Signal/Background (of CD4 negative population) |
| --- | --- |
| B1 | 36 |
| B2 | 22 |
| B3 | 44 |
| B4 | 8 |
| B5 | 1980 |
| B6 | 61 |
| B7 | 318 |
| B8 | 1 |
| B9 | 20 |
| B10 | 23 |
| B11 | 4 |
